This note sets out measurements from patent US20240307439A1 (ARCELLX, published 2024).

Test [1] concerns the target T1, BCMA on tumor cells (NCI-H929, U266, MM.1S, NALM6-BCMA) (Homo sapiens (Human), UniProt Q02223 1-184).
T1 construct: also called BCMA+ tumor target
T1 sequence: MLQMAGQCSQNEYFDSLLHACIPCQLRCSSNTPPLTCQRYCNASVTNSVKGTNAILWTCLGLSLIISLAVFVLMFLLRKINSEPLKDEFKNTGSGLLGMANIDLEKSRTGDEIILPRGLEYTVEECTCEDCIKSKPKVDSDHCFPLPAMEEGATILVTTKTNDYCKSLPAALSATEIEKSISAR
The test can be described thus: flow cytometry of NALM6-BCMA tumor cells flushed from femurs of mice after I.V. Adapter administration.

The target in test [2] is T2, BCMA-binding CAR (bc40).
T2 construct: D domain CAR on Jurkat reporter cells or T cells; The entry includes signal peptide and FLAG tag; also called BCMA-specific D domain CAR; CTsp-Flag-GSlinker-bc40-GSlinker-CD8H-TM-41BB-CD3ζ
The test can be described thus: flow cytometry, CAR-transduced Jurkat cells incubated with 0.5 µg Adapter, stained with anti-HIS PE.

Test [3] addresses T3, CD123-Fc (Homo sapiens (Human), UniProt P26951 19-305).
T3 construct: not shown: Fc part not described
T3 sequence: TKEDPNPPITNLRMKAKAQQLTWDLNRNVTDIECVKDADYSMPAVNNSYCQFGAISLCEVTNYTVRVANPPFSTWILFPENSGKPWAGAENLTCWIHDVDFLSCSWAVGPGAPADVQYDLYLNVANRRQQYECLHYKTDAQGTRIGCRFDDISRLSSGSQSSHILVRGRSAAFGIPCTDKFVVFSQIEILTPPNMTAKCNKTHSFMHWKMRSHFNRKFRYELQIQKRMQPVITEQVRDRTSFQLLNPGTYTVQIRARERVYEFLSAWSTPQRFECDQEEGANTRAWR
The test can be described thus: flow cytometry, Adapter held on af03-CAR Jurkat cells, CD123-Fc detected with Anti-Fc A488. Here is the method:
(§1) 10⁵ Jurkat NFAT-Luciferase transduced with an AFP (p26)-binding CAR (af03) were incubated with a total of 0.5 μg of Adapter proteins at various ratios of the BCMA- to CD123-specific Adapters (4° C. for 20 minutes), washed, and then incubated with CD123-Fc and biotinylated BCMA (0.5 μg of each) (4° C. for 20 minutes), washed, then binding detected with Anti-Fc A488 and Streptavidin-PE. FIG. 8A presents a flow cytometric analysis of CD123-binding and BCMA-binding to their respective target proteins, FIG. 8B provides a comparison of mean fluorescence intensity (MFI) of A488 MFI (CD123-binding, left axis) and PE MFI (BCMA-binding, right axis) flow cytometric data presented in FIG. 8A.
(§2) 10⁵ Jurkat NFAT-Luciferase transduced with a p26-binding CAR (af03, SEQ ID NO: 1092) were incubated with a total of […] of Adapters (SEQ ID NO: 1084, SEQ ID NO: 1085) at the indicated ratios at 4° C. for 20 minutes, washed, and then incubated with CD123-Fc and biotinylated BCMA (0.5 μg of each/(4° C. for 20 minutes), washed, then binding detected with Anti-Fc A488 and Streptavidin-PE. FIG. 8A presents a flow cytometric analysis of CD123-binding and BCMA-binding to their respective target proteins, FIG. 8B provides a comparison of mean fluorescence intensity (MFI) of A488 MFI (CD123-binding, left axis) and PE MFI (BCMA-binding, right axis) flow cytometric data presented in FIG. 8A.

The target of test [4] is T4, biotinylated BCMA (Homo sapiens (Human), UniProt Q02223 1-54, biotinylated).
T4 sequence: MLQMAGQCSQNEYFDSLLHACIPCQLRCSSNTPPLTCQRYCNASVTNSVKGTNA
The test can be described thus: flow cytometry, Adapter held on af03-CAR Jurkat cells, biotinylated BCMA detected with Streptavidin-PE. The procedure:
as §1, §2

T2 sequence (chain, as listed by the source): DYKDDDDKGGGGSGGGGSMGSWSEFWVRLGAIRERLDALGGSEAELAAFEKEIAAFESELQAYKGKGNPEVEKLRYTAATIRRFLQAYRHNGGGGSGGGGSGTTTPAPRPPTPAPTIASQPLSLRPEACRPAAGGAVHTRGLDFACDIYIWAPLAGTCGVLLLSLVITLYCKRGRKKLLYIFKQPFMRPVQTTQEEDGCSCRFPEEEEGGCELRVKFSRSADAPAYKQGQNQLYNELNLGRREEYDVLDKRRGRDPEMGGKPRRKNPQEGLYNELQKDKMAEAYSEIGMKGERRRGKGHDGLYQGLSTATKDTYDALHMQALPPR

B1: BCMA specific Adapter (bc98-p26-bc98) (designed binder)
chain: MGSWSEFWARLGAIRERLDALGGSEAELAAFEKEIAAFESELQAYKGKGNPEVEKLRYTAGTIKRFLQAYRHNGGGGDGGGGSGGGGSGLEKCFQTENPLECQDKGEEELQKYIQESQALAKRSCGLFQKLGEYYLQNAFLVAYTKKAPQLTSSELMAITRKMAATAATCCQLSEDKLLACGEGAADIIIGHLCIRHEMTPVNPGVGQCCTSSYANRRPCFSSLVVDETYVPPAFSDDKFIFHKDLCQAQGVALQTMKQEFLINLVKQKPQITEEQLEAVIADFSGLLEKCCQGQEQEVCFAEEGQKLISKTRAALGVGGGGSGGGGSGGGGSMGSWSEFWARLGAIRERLDALGGSEAELAAFEKEIAAFESELQAYKGKGNPEVEKLRYTAGTIKRFLQAYRHN
notes: also called SPRX-BCMA; sparX-BCMA
For B1, the binding result in test [1] is “binds”.

B2: Cg06-BCMA Adapter (designed binder)
chain: DEMGSWDEFGRRLYAIEWRLYALGGSEAELAAFEKEIAAFESELQAYKGKGNPEVEKLREIAAVIRSNLQAYRHNGGGGSGGGGSGGGGSGMLQMAGQCSQNEYFDSLLHACIPCQLRCSSNTPPLTCQRYCNASVTNSVKGTNAGGGGSGGGGSGGGGSHHHHHHHHHH
notes: Soluble fusion: cg06 D domain, linker, BCMA extracellular domain, linker, HIS tag; also called CD123(cg06)-BCMS-HIS tag
For the molecule B2, the binding result in test [2] is listed as “binds”.

B3: α3D-BCMA Adapter (designed binder)
chain: DEGGGGSMGSWAEFKQRLAAIKTRLQALGGSEAELAAFEKEIAAFESELQAYKGKGNPEVEALRKEAAAIRDELQAYRHNGGGGSGGGGSGGGGSGMLQMAGQCSQNEYFDSLLHACIPCQLRCSSNTPPLTCQRYCNASVTNSVKGTNAGGGGSGGGGSGGGGSHHHHHHHHHH
notes: Soluble fusion: targetless α3D domain, linker, BCMA extracellular domain, HIS tag; also called none(α3D)-BCMA-HIS tag
On to B3, for which the binding result in test [2] is recorded as “binds”.

B4: cg06-p26 Adapter (designed binder)
chain: DEHHHHHHHHHHKLENLYFQGGGGGSMGSWDEFGRRLYAIEWRLYALGGSEAELAAFEKEIAAFESELQAYKGKGNPEVEKLREIAAVIRSNLQAYRHNGGGGSGGGGSGGGGSLEKCFQTENPLECQDKGEEELQKYIQESQALAKRSCGLFQKLGEYYLQNAFLVAYTKKAPQLTSSELMAITRKMAATAATCCQLSEDKLLACGEGAADIIIGHLCIRHEMTPVNPGVGQCCTSSYANRRPCFSSLVVDETYVPPAFSDDKFIFHKDLCQAQGVALQTMKQEFLINLVKQKPQITEEQLEAVIADFSGLLEKCCQGQEQEVCFAEEGQKLISKTRAALGV
notes: Soluble fusion: HIS tag, cg06 D domain, linker, p26; also called cg06-AFP (p26) Adapter; CD123 (cg06)-AFP (p26) Adapter
B4: in test [3], the binding result is given as “binds”.

B5: bc40-p26 Adapter (designed binder)
chain: DEHHHHHHHHHHKLENLYFQGGGGGSMGSWSEFWVRLGAIRERLDALGGSEAELAAFEKEIAAFESELQAYKGKGNPEVEKLRYTAATIRRFLQAYRHNGGGGSGGGGSGGGGSLEKCFQTENPLECQDKGEEELQKYIQESQALAKRSCGLFQKLGEYYLQNAFLVAYTKKAPQLTSSELMAITRKMAATAATCCQLSEDKLLACGEGAADIIIGHLCIRHEMTPVNPGVGQCCTSSYANRRPCFSSLVVDETYVPPAFSDDKFIFHKDLCQAQGVALQTMKQEFLINLVKQKPQITEEQLEAVIADFSGLLEKCCQGQEQEVCFAEEGQKLISKTRAALGV
notes: Soluble fusion: HIS tag, bc40 D domain, linker, full-length p26; also called bc40-AFP (p26) Adapter; HIS tag-BCMA(bc40)-p26
Take B5: the binding result in test [4] is “binds”.
